Assay [1] concerns the target δ-catenin peptide PASPDSWV-COOH. The assay is described as follows: SPR (BIAcore), column δ-Catenin; number at the right of panel F (off rate per paragraph 112), unit from the column head of Table 4.
Assay [2] has as its target ARVCF peptide PQPVDSWV-COOH (eight-residue motif corresponding to the ARVCF C-terminus). The assay is described as follows: SPR.
Assay [3] deals with δ-catenin peptide PASPDSWV-COOH. The experiment in a line: SPR.
The target in assay [4] is ARVCF peptide PQPVDSWV-COOH (eight-residue motif corresponding to the ARVCF C-terminus). The assay is described as follows: SPR (BIAcore).
Assay [5] addresses δ-catenin peptide PASPDSWV-COOH. The experiment in a line: SPR (BIAcore).
For assay [6], the target named is ARVCF peptide PQPVDSWV-COOH (eight-residue motif corresponding to the ARVCF C-terminus). The assay is described as follows: SPR, ratio of Kd.
For assay [7], the target named is δ-catenin peptide PASPDSWV-COOH. The assay is described as follows: SPR, ratio of Kd.
In assay [8] the target is ARVCF peptide PQPVDSWV-COOH (eight-residue motif corresponding to the ARVCF C-terminus). The experiment in a line: IC50 for the ARVCF peptide; method not stated with the table.
Assay [9] addresses δ-catenin peptide PASPDSWV-COOH. The assay is described as follows: SPR (BIAcore), column δ-Catenin; number at the left of panel F (on rate per paragraph 112), unit from the column head of Table 4.
The target in assay [10] is SUMO-ARVCF fusion protein (yeast). The assay is described as follows: SPR, equilibrium mode, target peptide fused to yeast SUMO.
Assay [11] addresses SH2 domain of human Grb2 (human), P62993. The experiment in a line: panel E, competition phage ELISA: wtSH2 (Grb2-SH2) phages incubated with free pY1208 peptide (0 to about 2200 nM), phages not bound to the free peptide captured and detected.
Assay [12] has as its target δ-catenin peptide PASPDSWV-COOH. The assay is described as follows: SPR (BIAcore); SPR, soluble ePDZ-b; only a lower bound on Kd (very weak binding); same conditions as the other rows.
The target is the same in assay [13]. The experiment in a line: SPR, ratio of Kd; ratio Kd(δ-catenin)/Kd(ARVCF) derived from the same SPR values, not a separate measurement.
For assay [14], the target named is ARVCF peptide with Ala substitution at position -4. The assay is described as follows: SPR, Ala scan of the ARVCF peptide.

SH2 domain of human Grb2 (human), P62993, sequence (P62993 56-153 limits assumed): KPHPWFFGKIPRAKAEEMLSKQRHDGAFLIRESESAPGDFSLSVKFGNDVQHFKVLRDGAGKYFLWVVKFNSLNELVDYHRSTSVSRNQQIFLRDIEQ

B1: enhanced PDZ-a (designed binder)
chain: MKHHHHHHHHHHSSDYKDDDDKGENLYFQGSPELGFSISGGVGGRGNPFRPDDDGIFVTRVQPEGPASKLLQPGDKIIQANGYSFINIEHGQAVSLLKTFQNTVELIIVREVGNGAKQEIRVRVEKDGGSGGVSSVPTNLEVVAATPTSLLISWDASYYGVSYYRITYGETGGNSPVQEFTVPYSSSTATISGLKPGVDYTITVYAYSDYYGSHHYSPISINYRT
Regarding B1, the koff was found to be 0.11 s⁻¹ in [1] and 0.015 s⁻¹ in [2]. Besides, the dissociation constant (Kd) in [2] turned out to be 56 nM; in [3], 429 nM; in assay [4], 56 nM; in [5] it was 430 nM. Further, the kon was found to be 290000 M⁻¹ s⁻¹ in assay [2] and 250000 M⁻¹ s⁻¹ in [9]. Besides, the Affinity Enhancement (Kd of cpPDZFN for ARVCF / Kd of the clamp) in [6] came to 520 fold. Further, the Specificity Index (Kd for δ-catenin / Kd for ARVCF) in assay [7] came to 8 fold. Moreover, the IC50 in [8] was 40 nM.

B2: circularly permutated PDZ domain (designed binder)
chain: PELGFSISGGVGGRGNPFRPDDDGIFVTRVQPEGPASKLLQPGDKIIQANGYSFINIEHGQAVSLLKTFQNTVELIIVREVGNGAKQEIRVRVEKD
As to B2, the Kd in [10] turned out to be 11 µM.
In assay [11], NEPLYLNTFANTC (modifications not checked) [peptide corresponding to residues 1204-1216 of ErbB4 receptor (pY1208)] came in with an IC50 of 120 nM.

B3: enhanced PDZ-b (designed binder)
chain: MKHHHHHHHHHHSSDYKDDDDKGENLYFQGSPELGFSISGGVGGRGNPFRPDDDGIFVTRVQPEGPASKLLQPGDKIIQANGYSFINIEHGQAVSLLKTFQNTVELIIVREVGNGAKQEIRVRVEKDGGSGGVSSVPTNLEVVAATPTSLLISWDAYYDSHVSYYRITYGETGGNSPVQEFTVPGSKSTATISGLKPGVDYTITVYAHYNYHYYSSPISINYRT
Molecule B3 displayed a Kd in [12] of more than 10 µM. In addition, in assay [13], the Specificity Index (Kd for δ-catenin / Kd for ARVCF) was more than 178 fold. In addition, in assay [2], the Kd amounted to 56 nM, the koff came out at 0.011 s⁻¹ and the kon came to 190000 M⁻¹ s⁻¹. Further, the Kd in assay [4] came out at 56 nM. The Affinity Enhancement (Kd of cpPDZFN for ARVCF / Kd of the clamp) in assay [6] was determined as 520 fold. Further, in assay [8], the IC50 amounted to 59 nM.

B4: ePDZ-b1 (designed binder)
chain: MKHHHHHHHHHHSSDYKDDDDKGENLYFQGSPELGFSISGGVGGRGNPFRPDDDGIFVTRVQPEGPASKLLQPGDKIIQANGYSFINIEHGQAVSLLKTFQNTVELIIVREVGNGAKQEIRVRVEKDGGSGGVSSVPTNLEVVAATPTSLLISWDAYRELPVSYYRITYGETGGNSPVQEFTVPGSKSTATISGLKPGVDYTITVYAHYNYHYYSSPISINYRT
In the case of B4, in assay [2], the Kd turned out to be 5 nM, the off-rate constant (koff) was less than 0.00037 s⁻¹ and the kon is 73000 M⁻¹ s⁻¹. Moreover, the Affinity Enhancement (Kd of cpPDZFN for ARVCF / Kd of the clamp) in assay [6] worked out at 4960 fold. Also, in assay [7], the Specificity Index (Kd for δ-catenin / Kd for ARVCF) was more than 2000 fold. Also, in assay [14], the fold reduction in affinity against the wild-type ARVCF peptide was more than 200 fold.
